This note sets out measurements from publication PMC4505066 (2015).

The labels stand for the following.
B1: HDAC4 catalytic domain, wild type (domain or fragment)
chain: TKPRFTTGLVYDTLMLKHQCTCGSSSSHPEHAGRIQSIWSRLQETGLRGKCECIRGRKATLEELQTVHSEAHTLLYGTNPLNRQKLDSKKLLGSLASVFVRLPCGGVGVDSDTIWNEVHSAGAARLAVGCVVELVFKVATGELKNGFAVVRPPGHHAEESTPMGFCYFNSVAVAAKLLQQRLSVSKILIVDWDVHHGNGTQQAFYSDPSVLYMSLHRYDDGNFFPGSGAPDEVGTGPGVGFNVNMAFTGGLDPPMGDAEYLAAFRTVVMPIASEFAPDVVLVSSGFDAVEGHPTPLGGYNLSARCFGYLTKQLMGLAGGRIVLALEGGHDLTAICDASEACVSALLGNELDPLPEKVLQQRPNANAVRSMEKVMEIHSKYWRCLQRTTSTAGRSLIEAQTCENEEAETVT

“And” between values parts separate entries of the source, which are not always exact repeats. Equal entries are not always repeated. Where two headings read alike, the source gives them in different places. No end group written: not given here. A value given as a limit tells only on which side of the number the result lay.

In assay [1] the target is T1, GSI motif peptide with a mutation to Thr-4 of the motif (UniProt Q9Y618, BODIPY-TMR coupled to the N-terminal cysteine). Kind of assay: FP; T4V peptide.
The target in assay [2] is GSI motif peptide with a mutation to Pro-8 of the motif (UniProt Q9Y618, BODIPY-TMR coupled to the N-terminal cysteine). The assay is described as follows: FP; P8A peptide.
For assay [3], the target named is T1, GSI motif peptide with a mutation to …. The assay is described as follows: FP; T4A peptide.
The target in assay [4] is T2, GSI motif peptide with a mutation to Gln-5 of the motif (UniProt Q9Y618, BODIPY-TMR coupled to the N-terminal cysteine). Kind of assay: FP; Q5E peptide.
Assay [5] has as its target T2, GSI motif peptide with a mutation to …. The assay is described as follows: FP; Q5A peptide.
In another assay the target is T3, HDAC9 catalytic domain.
T3 chain: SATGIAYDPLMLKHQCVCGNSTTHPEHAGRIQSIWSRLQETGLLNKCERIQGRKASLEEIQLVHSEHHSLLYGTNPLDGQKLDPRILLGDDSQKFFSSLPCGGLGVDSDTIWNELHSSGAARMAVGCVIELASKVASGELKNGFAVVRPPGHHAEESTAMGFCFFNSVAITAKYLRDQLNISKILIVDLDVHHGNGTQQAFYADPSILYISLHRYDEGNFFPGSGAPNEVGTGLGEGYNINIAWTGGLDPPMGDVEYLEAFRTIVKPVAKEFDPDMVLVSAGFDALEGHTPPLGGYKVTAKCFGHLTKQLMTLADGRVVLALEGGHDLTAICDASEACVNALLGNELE
Kind of assay: FP.

The next assay concerns the target T4, HDAC5 catalytic domain.
T4 chain: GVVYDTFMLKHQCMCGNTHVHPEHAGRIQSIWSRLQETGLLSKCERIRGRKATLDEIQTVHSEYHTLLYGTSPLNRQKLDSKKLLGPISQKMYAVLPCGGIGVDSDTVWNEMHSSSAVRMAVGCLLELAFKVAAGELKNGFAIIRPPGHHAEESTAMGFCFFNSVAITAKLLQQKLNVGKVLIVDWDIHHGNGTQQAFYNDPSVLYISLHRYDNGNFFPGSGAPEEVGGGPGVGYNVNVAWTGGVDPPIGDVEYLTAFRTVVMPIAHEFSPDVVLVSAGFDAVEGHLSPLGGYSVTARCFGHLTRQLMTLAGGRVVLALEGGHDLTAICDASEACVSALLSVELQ
The assay is described as follows: FP.

Another assay addresses T5, full-length HDAC8 (UniProt Q9BY41 1-377).
T5 chain: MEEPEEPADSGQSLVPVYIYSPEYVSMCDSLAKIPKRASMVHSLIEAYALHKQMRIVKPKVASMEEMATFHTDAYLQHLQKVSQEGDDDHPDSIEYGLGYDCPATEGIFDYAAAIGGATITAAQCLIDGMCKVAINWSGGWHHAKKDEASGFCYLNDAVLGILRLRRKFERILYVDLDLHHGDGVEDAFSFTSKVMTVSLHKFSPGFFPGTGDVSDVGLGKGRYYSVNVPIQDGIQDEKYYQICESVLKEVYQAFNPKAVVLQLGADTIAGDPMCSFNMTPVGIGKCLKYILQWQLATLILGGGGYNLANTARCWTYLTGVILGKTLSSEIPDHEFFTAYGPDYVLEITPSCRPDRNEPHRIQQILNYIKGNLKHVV
The assay is described as follows: FP.

Assay [6] concerns the target B1. Kind of assay: FP.
The target in a further assay is T6, HDAC7 catalytic domain.
T6 chain: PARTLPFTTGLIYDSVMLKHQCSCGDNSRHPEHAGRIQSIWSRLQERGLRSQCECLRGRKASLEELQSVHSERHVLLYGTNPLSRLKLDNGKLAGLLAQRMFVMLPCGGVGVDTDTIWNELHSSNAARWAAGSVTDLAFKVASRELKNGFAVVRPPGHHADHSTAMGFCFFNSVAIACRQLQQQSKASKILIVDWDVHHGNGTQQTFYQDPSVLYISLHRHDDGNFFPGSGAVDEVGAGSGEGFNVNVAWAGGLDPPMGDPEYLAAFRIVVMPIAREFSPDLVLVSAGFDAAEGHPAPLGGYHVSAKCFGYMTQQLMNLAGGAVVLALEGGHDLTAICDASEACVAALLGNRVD
Kind of assay: FP.

The target in assay [7] is T7, HDAC4 catalytic domain C667A.
T7 chain: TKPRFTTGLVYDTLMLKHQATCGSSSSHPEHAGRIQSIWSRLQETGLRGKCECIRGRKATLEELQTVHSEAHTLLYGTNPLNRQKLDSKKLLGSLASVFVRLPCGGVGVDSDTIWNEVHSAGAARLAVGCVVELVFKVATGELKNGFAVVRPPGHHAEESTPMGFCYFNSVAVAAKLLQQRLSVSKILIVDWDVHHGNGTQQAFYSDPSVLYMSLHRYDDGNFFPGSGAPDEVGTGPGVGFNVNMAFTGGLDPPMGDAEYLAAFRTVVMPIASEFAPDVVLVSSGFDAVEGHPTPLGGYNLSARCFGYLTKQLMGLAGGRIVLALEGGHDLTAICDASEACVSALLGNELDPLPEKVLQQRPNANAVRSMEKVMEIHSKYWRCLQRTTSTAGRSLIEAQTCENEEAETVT
The assay is described as follows: FP.

Assay [8] addresses T8, HDAC4 catalytic domain C751A.
T8 chain: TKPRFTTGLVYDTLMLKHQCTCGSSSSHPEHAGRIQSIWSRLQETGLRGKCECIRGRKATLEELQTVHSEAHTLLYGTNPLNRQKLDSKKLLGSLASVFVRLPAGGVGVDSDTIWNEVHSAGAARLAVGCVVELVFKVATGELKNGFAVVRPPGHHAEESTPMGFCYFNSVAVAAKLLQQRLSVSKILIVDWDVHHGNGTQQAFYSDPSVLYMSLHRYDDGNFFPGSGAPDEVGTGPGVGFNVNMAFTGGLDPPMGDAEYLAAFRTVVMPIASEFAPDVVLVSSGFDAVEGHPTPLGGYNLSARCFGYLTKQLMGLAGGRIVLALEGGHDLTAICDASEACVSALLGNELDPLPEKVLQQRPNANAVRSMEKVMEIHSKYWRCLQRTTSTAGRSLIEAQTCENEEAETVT
Kind of assay: FP.

The target of assay [9] is HDAC4 catalytic domain L728A (UniProt P56524 648-1033, L728A). Kind of assay: FP.
HDAC4 catalytic domain L728A, sequence (P56524 648-1033 L728A): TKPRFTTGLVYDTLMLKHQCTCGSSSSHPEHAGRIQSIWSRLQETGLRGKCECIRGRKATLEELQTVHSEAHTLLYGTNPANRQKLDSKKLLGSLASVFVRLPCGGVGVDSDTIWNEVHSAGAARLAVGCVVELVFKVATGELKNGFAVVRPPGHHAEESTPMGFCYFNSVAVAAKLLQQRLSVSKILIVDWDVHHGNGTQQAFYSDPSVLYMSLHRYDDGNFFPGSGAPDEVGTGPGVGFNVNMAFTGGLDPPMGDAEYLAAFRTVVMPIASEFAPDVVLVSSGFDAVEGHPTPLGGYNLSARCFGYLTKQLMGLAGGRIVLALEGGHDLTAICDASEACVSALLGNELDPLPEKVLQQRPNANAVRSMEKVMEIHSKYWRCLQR
Assay [10] concerns the target T9, HDAC4 catalytic domain H675A.
T9 chain: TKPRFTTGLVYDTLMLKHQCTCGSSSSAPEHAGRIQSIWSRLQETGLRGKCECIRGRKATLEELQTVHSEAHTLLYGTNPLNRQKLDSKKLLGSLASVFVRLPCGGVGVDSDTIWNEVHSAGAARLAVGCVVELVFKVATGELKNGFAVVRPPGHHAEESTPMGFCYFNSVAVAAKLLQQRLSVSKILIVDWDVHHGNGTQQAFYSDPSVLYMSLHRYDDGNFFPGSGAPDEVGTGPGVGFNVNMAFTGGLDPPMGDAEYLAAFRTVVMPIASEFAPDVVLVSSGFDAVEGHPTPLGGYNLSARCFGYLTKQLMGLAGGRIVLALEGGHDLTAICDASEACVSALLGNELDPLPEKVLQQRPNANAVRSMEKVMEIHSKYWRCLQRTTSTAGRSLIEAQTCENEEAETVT
Kind of assay: FP.

Assay [11] addresses B1. Kind of assay: FP.

As usually defined, the Kd is the equilibrium constant for the complex coming apart. As to B1, the Kd in assay [1] is 16.9 µM; in assay [2], 47 µM; in assay [3], 14.4 µM; in [4] it was 17.7 µM; in assay [5], 5.47 µM.
On to C(BODIPY‑TMR)PRPLKEGSITQGTPLKYDTG, for which the Kd is 8.34 µM with HDAC9 catalytic domain; 4.24 µM with HDAC5 catalytic domain; over 1000 µM with full-length HDAC8; 5.74 µM and 6.5 µM in [6]; 4.44 µM with HDAC7 catalytic domain; over 1000 µM in assay [7]. Also, the Kd in assay [8] was over 1000 µM; in [9], 4.59 µM; in assay [10], over 1000 µM; in [11] it was 5.6 µM.
